From paper PMC9629070 (Autophagy, 2022)
Blank lines part the entries; values can stand above or below the binder they belong to.

Columns and labels:
Experiment in all cases: pull-down
[1] = target: GAPC1-His (Arabidopsis thaliana, UniProt P25858 1-338)
[2] = target: GAPC2-His (Arabidopsis thaliana, UniProt Q9FX54 1-338)
[3] = target: T1, GST-ATG6 (Arabidopsis thaliana, UniProt Q9M367 1-517)
T1 sequence (looked up): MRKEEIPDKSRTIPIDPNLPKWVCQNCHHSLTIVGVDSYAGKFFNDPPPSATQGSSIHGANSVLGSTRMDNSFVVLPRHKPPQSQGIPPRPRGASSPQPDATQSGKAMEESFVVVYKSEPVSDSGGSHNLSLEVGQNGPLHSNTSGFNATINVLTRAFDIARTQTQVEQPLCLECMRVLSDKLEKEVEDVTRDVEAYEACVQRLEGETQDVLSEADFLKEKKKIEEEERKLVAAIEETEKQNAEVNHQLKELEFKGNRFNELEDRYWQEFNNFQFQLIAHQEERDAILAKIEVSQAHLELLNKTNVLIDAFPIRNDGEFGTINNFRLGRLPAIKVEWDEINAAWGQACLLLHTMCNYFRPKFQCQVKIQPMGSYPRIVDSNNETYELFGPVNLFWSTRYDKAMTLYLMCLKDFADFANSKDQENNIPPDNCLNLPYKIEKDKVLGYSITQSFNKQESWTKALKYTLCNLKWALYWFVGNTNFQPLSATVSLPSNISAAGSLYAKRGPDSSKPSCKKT

Chain of GAPC1-His (P25858 whole entry): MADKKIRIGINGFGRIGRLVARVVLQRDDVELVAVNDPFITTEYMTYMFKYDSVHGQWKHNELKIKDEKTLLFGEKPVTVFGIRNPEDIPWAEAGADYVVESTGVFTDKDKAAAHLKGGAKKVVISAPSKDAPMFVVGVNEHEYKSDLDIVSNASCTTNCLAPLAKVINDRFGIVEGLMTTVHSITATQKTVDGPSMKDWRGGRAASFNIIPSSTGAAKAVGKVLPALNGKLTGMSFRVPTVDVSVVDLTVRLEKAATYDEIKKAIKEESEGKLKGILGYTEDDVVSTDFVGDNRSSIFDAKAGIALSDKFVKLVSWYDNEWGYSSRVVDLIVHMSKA
Chain of GAPC2-His (Q9FX54 whole entry): as the sequence (P25858 whole entry) above, with N61H, I65V, E68D, A92G, Y98F, A227S, L274M counted along it

- binding result [1]: binds
- binding result [2]: binds
B1: GST-ATG3 (natural protein, Arabidopsis thaliana, UniProt Q0WWQ1 1-313, looked up)
chain: MVLSQKLHEAFKGTVERITGPRTISAFKEKGVLSVSEFVLAGDNLVSKCPTWSWESGDASKRKPYLPSDKQFLITRNVPCLRRAASVAEDYEAAGGEVLVDDEDNDGWLATHGKPKDKGKEEDNLPSMDALDINEKNTIQSIPTYFGGEEDDDIPDMEEFDEADNVVENDPATLQSTYLVAHEPDDDNILRTRTYDLSITYDKYYQTPRVWLTGYDESRMLLQPELVMEDVSQDHARKTVTIEDHPHLPGKHASVHPCRHGAVMKKIIDVLMSRGVEPEVDKYLFLFLKFMASVIPTIEYDYTMDFDLGSSST

- binding result [3]: binds
B2: PGK3-His (natural protein, Arabidopsis thaliana, UniProt Q9SAJ4 1-401, looked up)
chain: MATKRSVGTLKEADLKGKSVFVRVDLNVPLDDNSNITDDTRIRAAVPTIKYLMGNGSRVVLCSHLGRPKGVTPKYSLKPLVPRLSELLGVEVVMANDSIGEEVQKLVAGLPEGGVLLLENVRFYAEEEKNDPEFAKKLAALADVYVNDAFGTAHRAHASTEGVAKFLKPSVAGFLMQKELDYLVGAVANPKKPFAAIVGGSKVSTKIGVIESLLNTVDILLLGGGMIFTFYKAQGLSVGSSLVEEDKLDLAKSLMEKAKAKGVSLLLPTDVVIADKFAPDANSKIVPATAIPDGWMGLDIGPDSIKTFSEALDTTKTIIWNGPMGVFEFDKFAAGTEAVAKQLAELSGKGVTTIIGGGDSVAAVEKVGLADKMSHISTGGGASLELLEGKPLPGVLALDEA
